# Assay results as given in the supplement of paper PMC10567573.
# B1: PTPRD (parent)
# chain: FICQATGDPRPKIVWNKKGKKVSN
# B2: KRT13 (parent)
# chain: TPGIDLTRVLAEMREQYEAMAERN
# Variants of: B1
# Assay: protein stability index of a GFP-peptide fusion (GPS, HEK-293T) (PSI 1-6); higher = more stable
# Settings: c terminus: a fixed tail appended
# 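Note: lentivirally expressed fusions sorted by FACS into six bins by GFP to DsRed ratio, PSI derived from sequencing read proportions per bin multiplied by bin number.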
row,Variant,protein stability index
1,I2L,2.59
2,I2E,4.52
3,I2W,2.95
4,I2A,2.67
5,I2M,3.44
6,I2T,3.58
7,I2Y,3.01
8,I2V,2.34
9,I2F,3.85
10,I2C,2.29
11,I2P,3.89
12,I2N,4.27
13,I2D,4.73
14,I2H,1.55
15,I2R,3.57
16,I2K,3.47
17,I2S,3.75
18,I2Q,2.83
19,I2G,4.1
20,Q4N,2.03
21,Q4Y,1.37
22,Q4M,1.29
23,Q4C,1.8
24,Q4G,1.88
25,Q4I,1.84
26,Q4K,2.42

row,Variant,protein stability index
1,Q4E,2.18
2,Q4R,1.56
3,Q4P,2.14
4,Q4H,2.33
5,Q4F,2.25
6,Q4L,2.17
7,Q4D,1.87
8,Q4W,2.95
9,Q4T,3.05
10,Q4V,2.08
11,Q4S,1.58
12,Q4A,1.61
13,V14K,2.4
14,V14F,3.73
15,V14A,2.23
16,V14E,2.7
17,V14H,2.27
18,V14I,2.23
19,V14P,2.21
20,V14D,2.35
21,V14T,2.5
22,V14M,1.67
23,V14Q,2.01
24,V14W,2.18
25,V14R,1.78
26,V14G,2

row,Variant,protein stability index
1,V14S,2.27
2,V14N,1.73
3,A5M,2.02
4,A5C,2.12
5,A5P,2.04
6,A5Q,1.95
7,A5K,3.03
8,A5S,1.83
9,A5G,2.07
10,A5N,2.09
11,A5W,2.35
12,A5V,2.26
13,A5Y,2.25
14,A5I,1.77
15,A5F,2.19
16,A5T,2.08
17,A5L,2.01
18,A5D,2.39
19,A5E,1.92
20,A5R,2.24
21,A5H,2.2
22,T6N,1.78
23,T6I,1.61
24,T6H,1.68
25,T6P,1.96
26,T6Q,2.17

row,Variant,protein stability index
1,T6K,2.02
2,T6G,2.18
3,T6V,1.91
4,T6D,1.71
5,T6L,1.47
6,T6R,2
7,T6C,2.81
8,T6Y,2.24
9,T6A,1.92
10,T6F,1.68
11,T6M,1.65
12,T6E,2.05
13,T6S,2.94
14,F1V,2.75
15,F1Q,3.42
16,F1P,3.76
17,F1A,3.28
18,F1I,2.35
19,F1C,3.2
20,F1G,4.53
21,F1N,3.89
22,F1Y,2.26
23,F1E,3.2
24,F1W,2.23
25,F1S,3.3
26,F1H,3.71

row,Variant,protein stability index
1,F1D,3.65
2,F1T,3.08
3,F1K,3.12
4,F1L,2.15
5,F1M,2.92
6,F1R,3.66
7,K12W,1.6
8,K12S,2.17
9,K12H,1.86
10,K12A,1.87
11,K12Y,1.41
12,K12E,1.52
13,K12G,2.28
14,K12R,1.44
15,K12Q,1.94
16,K12L,3.35
17,K12P,1.96
18,K12N,1.95
19,K12D,1.18
20,K12I,1.89
21,K12T,2.26
22,K12V,1.61
23,K12C,1.9
24,K12M,1.58
25,P11C,1.32
26,P11S,2.18

row,Variant,protein stability index
1,P11W,1.87
2,P11N,1.87
3,P11L,3.08
4,P11H,2.4
5,P11I,2.31
6,P11T,2.07
7,P11A,2.34
8,P11Y,2.31
9,P11V,1.18
10,P11D,2.11
11,P11G,2.04
12,P11K,1.45
13,P11F,1.52
14,P11Q,2.19
15,P11E,2.88
16,P11M,1.03
17,P11R,2.5
18,P9G,1.4
19,P9Y,1.53
20,P9M,2.36
21,P9D,2.14
22,P9N,2.31
23,P9W,1.53
24,P9A,1.84
25,P9V,2.27
26,P9C,1.49

row,Variant,protein stability index
1,P9T,1.88
2,P9S,2
3,P9H,2.29
4,P9F,1.99
5,P9K,1.54
6,P9L,2.49
7,P9Q,1.83
8,P9E,1.99
9,P9I,2.21
10,D8K,2.5
11,D8Y,1.45
12,D8G,1.98
13,D8I,2.33
14,D8F,1.85
15,D8S,1.92
16,D8P,1.8
17,D8N,2.16
18,D8R,2.24
19,D8H,1.6
20,D8E,1.91
21,D8C,1.94
22,D8Q,1.77
23,D8M,1.8
24,D8T,2.11
25,D8L,1.5
26,D8A,2.04

row,Variant,protein stability index
1,I13M,1.51
2,I13E,2.1
3,I13H,1.74
4,I13T,1.73
5,I13Q,2.02
6,I13L,1.45
7,I13N,1.88
8,I13G,2.6
9,I13F,1.62
10,I13V,2.97
11,I13A,1.83
12,I13W,1.87
13,I13C,1.99
14,I13Y,1.86
15,I13R,2.46
16,I13S,1.52
17,I13K,1.74
18,I13P,1.75
19,G7R,1.92
20,G7Y,1.7
21,G7P,2.32
22,G7K,2.39
23,G7Q,2.22
24,G7N,1.97
25,G7A,2.15
26,G7S,2.02

row,Variant,protein stability index
1,G7M,1.9
2,G7T,2.01
3,G7D,1.93
4,G7H,2.16
5,G7E,2.81
6,G7W,3.96
7,G7I,2.01
8,G7V,1.81
9,G7C,1.87
10,G7F,2.69
11,G7L,2.19
12,C3G,2.2
13,C3N,1.88
14,C3S,1.92
15,C3H,2.56
16,C3E,3.04
17,C3T,1.98
18,C3I,2.38
19,C3Q,2.05
20,C3L,1.86
21,C3R,2.06
22,C3P,3.54
23,C3K,2.57
24,C3F,1.92
25,C3V,2.31
26,C3Y,1.15

row,Variant,protein stability index
1,C3W,1.97
2,C3M,1.75
3,C3A,2.55
4,C3D,2.85
5,R10V,1.88
6,R10P,2.41
7,R10D,1.82
8,R10M,2.58
9,R10C,1.84
10,R10H,1.79
11,R10K,2.95
12,R10L,1.83
13,R10E,1.61
14,R10F,1.89
15,R10S,1.81
16,R10A,1.98
17,R10I,2.08
18,R10Q,2.06
19,R10N,1.83
20,R10T,2

# Variants of: B2
# Assay: as above
# Settings: c terminus: a fixed tail appended
row,Variant,protein stability index
1,E22G,4.02
2,E22Y,3
3,E22N,4.04
4,E22A,4.08
5,E22T,3.87
6,E22C,3.7
7,E22S,3.52
8,E22I,2.79
9,E22P,3.98
10,E22K,4.39
11,E22H,3.73
12,E22W,2.86
13,E22D,4.66
14,E22V,2.56
15,E22M,4.03
16,E22F,2.98
17,E22L,4.4
18,R23E,4.9
19,R23Q,4.39
20,R23I,2.94
21,R23N,4.59
22,R23D,4.84
23,R23Y,3.61
24,R23F,3.78
25,R23M,3.27
26,R23T,4.08
27,R23W,2.83

row,Variant,protein stability index
1,R23V,3.01
2,R23G,3.98
3,R23P,4.62
4,R23K,4.03
5,R23H,4.21
6,R23A,3.9
7,R23S,4.56
8,R23C,4.43
9,R23L,3.34
10,A21F,3.98
11,A21D,4.91
12,A21I,4.27
13,A21K,3.94
14,A21V,3.55
15,A21S,4.65
16,A21C,4.29
17,A21G,2.79
18,A21H,4.07
19,A21M,4.09
20,A21Y,4.5
21,A21Q,4.54
22,A21P,4.93
23,A21L,4.39
24,A21R,4.18
25,N24K,3.27
26,N24Q,4.23
27,N24G,4.87

row,Variant,protein stability index
1,N24C,3.08
2,N24D,5.03
3,N24E,4.51
4,N24M,4.67
5,N24L,4.83
6,N24H,4.79
7,N24S,4.51
8,N24W,4.55
9,N24Y,3.8
10,N24T,4.22
11,N24P,4.07
12,N24A,3.56
13,N24I,4.63
14,N24F,4
15,M20T,4.25
16,M20H,4.32
17,M20V,3.09
18,M20L,3.74
19,M20P,4.81
20,M20N,3.18
21,M20K,4.81
22,M20Y,4.62
23,M20R,4.68
24,M20Q,4.13
25,M20I,3.88
26,M20W,5.32
